Reference: patent US20180362652A1 (Biogen, published 2018)
Positions count from the first letter of the chain named. Names and notes keep the numbering of the source. Like-named read-outs stand apart in the source and are kept apart here.

Columns and labels:
[1] = biological target: T1, cynomolgus monkey BDCA2 (full-length, cell surface, E73 SNP form) (cynomolgus monkey, UniProt Q8WTT0 1-213 (human entry)); assay: direct binding FACS, conditioned medium on CHO cells co-expressing BDCA2 and FcεRIγ
T1 construct: also called cyno BDCA2; surface cynomolgus monkey BDCA2
T1 chain: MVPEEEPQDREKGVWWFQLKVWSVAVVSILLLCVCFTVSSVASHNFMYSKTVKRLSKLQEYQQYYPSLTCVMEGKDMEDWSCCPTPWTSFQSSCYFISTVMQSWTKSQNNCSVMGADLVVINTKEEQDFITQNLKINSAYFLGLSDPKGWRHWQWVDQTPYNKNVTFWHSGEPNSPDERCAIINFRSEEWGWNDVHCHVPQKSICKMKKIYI
Experimental: (§1) Conditioned medium was assayed by direct binding FACS on stably transfected DG44 CHO cells co-expressing full-length BDCA2 and FcεRIγ cDNAs (human or cynomolgus monkey), (relevant expression vectors are human BDCA2/FcεRIγ: pEAG2456, cyno BDCA2/FcεRIγ: pEAG2668).

[2] = biological target: T2, human BDCA2 (full-length, cell surface) (human, UniProt Q8WTT0 1-213); assay: as above
T2 construct: also called huBDCA2; surface human BDCA2
T2 sequence: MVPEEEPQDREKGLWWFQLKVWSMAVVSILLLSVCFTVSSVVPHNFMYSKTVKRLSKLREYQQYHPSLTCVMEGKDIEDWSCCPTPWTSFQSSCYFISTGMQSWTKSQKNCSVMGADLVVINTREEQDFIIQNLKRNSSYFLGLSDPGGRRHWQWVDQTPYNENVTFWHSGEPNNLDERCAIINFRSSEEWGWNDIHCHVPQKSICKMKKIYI
Experimental: as §1

[3] = biological target: T3, monomeric huBDCA2 ectodomain (human, UniProt Q8WTT0 45-213); assay: Octet, mAb from conditioned medium on anti-human Fc tips, monomeric huBDCA2 in solution
T3 construct: Prepared by proteolytic cleavage of the purified muIgG2a Fc-huBDCA2 fusion protein (pEAG2423); also called human BDCA2 ectodomain; human BDCA2 ECD
T3 sequence: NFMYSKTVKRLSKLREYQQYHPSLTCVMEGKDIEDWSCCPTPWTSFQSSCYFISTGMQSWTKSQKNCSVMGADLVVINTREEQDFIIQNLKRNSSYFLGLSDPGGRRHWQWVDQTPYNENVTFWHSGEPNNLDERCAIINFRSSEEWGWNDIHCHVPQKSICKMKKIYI
Experimental: Backmutation to the unpaired cysteine, i.e., S95C, was constructed by site-directed mutagenesis producing plasmid pYL749. Variants S95T, S95A, and S95V were constructed by site-directed mutagenesis producing plasmids pYL750, pYL751, and pYL752, respectively. The full-length light chain cDNA sequences in the resultant plasmids were confirmed by DNA sequencing. […] Conditioned medium was harvested at 2 days post-transfection. […] Conditioned medium containing the C95 variant mAbs was assayed by Octet for binding to human BDCA2 ectodomain. Antibodies from conditioned medium from transiently transfected cells were bound to anti-human Fc tips, then monomeric huBDCA2 was flowed over the Octet tips, to examine binding and dissociation.

[4] = biological target: T3, monomeric huBDCA2 ectodomain; assay: as above; remark: listed apart in the source
Experimental: The monomeric huBDCA2 ectodomain was prepared by proteolytic cleavage from the purified muIgG2a Fc-huBDCA2 fusion protein (relevant plasmid: pEAG2423). Antibodies from conditioned medium from transiently transfected cells were bound to anti-human Fc tips, and then monomeric huBDCA2 was flowed over the Octet tips, to examine binding and dissociation.

B1: hu24F4 H2/L0 (antibody, V domains shown)
VH: EVQLVESGGGLVKPGGSLRLSCAASGFTFSTYTMSWVRQAPGKGLEWVSTISPGDSSTIYYADSVKGRFTISRDNAKNSLYLQMNSLRAEDTAVYYCARDIYYNYGAWFAYWGQGTLVTVSS
VL: AIQLTQSPSSLSASVGDRVTITCKASQSVDYDGDSYMNWYQQKPGKAPKLLIYAASTLESGVPSRFSGSGSGTDFTLTISSLQPEDFATYYCQQSNEDPRTFGQGTKVEIK
notes: Humanized variant, human IgG1/kappa, conditioned medium of 293E cells; also called H2 series of hu24F4
B1: no binding [1].

B2: hu24F4 H2/L2 (antibody, V domains shown)
VH: B1 VH
VL: B1 VL with A1D, A13V, V19A, T22S, L82V
notes: as for B1
B2: no binding [1]; no binding [2].

B3: hu24F4 H3/L2 (antibody, V domains shown)
VH: B1 VH with S57F, T58G, I59Y, A62P, K66Q
VL: B1 VL with A1D, A13V, V19A, T22S, L82V
notes: Humanized variant, human IgG1/kappa, conditioned medium of 293E cells; also called H3 series of hu24F4
B3: binds [1]; binds [2].

B4: hu24F4 H4/L1 S95C (antibody, human IgG1, V domains shown)
VH: B1 VH with E1D, S49A, S57F, T58G, I59Y, A62P, K66Q, A98T
VL: B1 VL with A1D, S95C
notes: Human IgG1/kappa; conditioned medium of 293E cells; also called H4-L1-S95C (YL749/YL746)
B4 was tested, and the Kd [3] was 289 pM, the koff [3] was 0.000279 s⁻¹ and the kon [3] was 967000 M⁻¹ s⁻¹.

B5: hu24F4 H4/L1 S95T (antibody, human IgG1, V domains shown)
VH: B1 VH with E1D, S49A, S57F, T58G, I59Y, A62P, K66Q, A98T
VL: B1 VL with A1D, S95T
notes: Human IgG1/kappa; conditioned medium of 293E cells; also called H4-L1-C95T (YL750/YL746); hu24F4 H4/L1 C95T
With B5 the Kd [3] was 392 pM, the koff [3] was 0.00037 s⁻¹ and the kon [3] was 944000 M⁻¹ s⁻¹.

B6: hu24F4 H4/L1 S95V (antibody, human IgG1, V domains shown)
VH: B1 VH with E1D, S49A, S57F, T58G, I59Y, A62P, K66Q, A98T
VL: B1 VL with A1D, S95V
notes: Human IgG1/kappa; conditioned medium of 293E cells; also called H4-L1-C95V (YL752/YL746)
B6 gave a Kd [3] of 323 pM, a koff [3] of 0.000301 s⁻¹ and a kon [3] of 933000 M⁻¹ s⁻¹.

B7: hu24F4 H6/L0 (antibody, V domains shown)
VH: DVQLVESGGGLVKPGGSLRLSCAASGFTFSTYTMSWVRQAPGKGLEWVATISGGNNYGYSYPDSVKGRFTISRDNAKNSLYLQMNSLRAEDTAVYYCTRDIYYNYGAWFAYWGQGTLVTVSS
VL: B1 VL
notes: Humanized variant, human IgG1/kappa, conditioned medium of 293E cells; also called H6 series of hu24F4
B7 gave a Kd [4] of 5000 pM, a koff [4] of 0.00137 s⁻¹ and a kon [4] of 273000 M⁻¹ s⁻¹.

B8: hu24F4 H6/L2 (antibody, V domains shown)
VH: B7 VH
VL: B1 VL with A1D, A13V, V19A, T22S, L82V
notes: as for B7
B8: binds [1]; binds [2].

B9: hu24F4 H0/L0 (antibody, V domains shown)
VH: EVQLVESGGGLVKPGGSLRLSCAASGFTFSTYTMSWVRQAPGKGLEWVSAISGSGGSTYYADSVKGRFTISRDNAKNSLYLQMNSLRAEDTAVYYCARDIYYNYGAWFAYWGQGTLVTVSS
VL: B1 VL
notes: Humanized variant, human IgG1/kappa, conditioned medium of 293E cells; also called H0 series of hu24F4
B9: no binding [1].

B10: hu24F4 H0/L2 (antibody, V domains shown)
VH: B9 VH
VL: B1 VL with A1D, A13V, V19A, T22S, L82V
notes: as for B9
B10: no binding [1]; no binding [2].

B11: hu24F4 H1/L0 (antibody, V domains shown)
VH: B9 VH with A50T, G53P, S54G, G55D, G56S, S57F, T58G, A61P
VL: B1 VL
notes: Humanized variant, human IgG1/kappa, conditioned medium of 293E cells; also called H1 series of hu24F4
B11: no binding [1].

B12: hu24F4 H5/L1 C95A (antibody, V domains shown)
VH: B7 VH with E6Q, G53P, N55D, N56S, Y57F, S60Y, K66Q, S86R, Q114R
VL: DIQLTQSPSSLSASVGDRVTITCKASQSVDYDGDSYMNWYQQKPGKAPKLLIYAASTLESGVPSRFSGSGSGTDFTLTISSLQPEDFATYYCQQANEDPRTFGQGTKVEIKR
notes: also called H5/L1 C95A variant
B12: binds [3].
